Values quoted from earlier work, collected in patent publication US20060160174A1, “Modified l49-sfv exhibiting increased stability and methods of use thereof” (priority 2002, published 2006).

Key:
[1] = biological target: T1, p97 (Homo sapiens, UniProt P08582); details: parental molecule expressed in the E. coli periplasm; cited from earlier work
T1 sequence (P08582 20-709): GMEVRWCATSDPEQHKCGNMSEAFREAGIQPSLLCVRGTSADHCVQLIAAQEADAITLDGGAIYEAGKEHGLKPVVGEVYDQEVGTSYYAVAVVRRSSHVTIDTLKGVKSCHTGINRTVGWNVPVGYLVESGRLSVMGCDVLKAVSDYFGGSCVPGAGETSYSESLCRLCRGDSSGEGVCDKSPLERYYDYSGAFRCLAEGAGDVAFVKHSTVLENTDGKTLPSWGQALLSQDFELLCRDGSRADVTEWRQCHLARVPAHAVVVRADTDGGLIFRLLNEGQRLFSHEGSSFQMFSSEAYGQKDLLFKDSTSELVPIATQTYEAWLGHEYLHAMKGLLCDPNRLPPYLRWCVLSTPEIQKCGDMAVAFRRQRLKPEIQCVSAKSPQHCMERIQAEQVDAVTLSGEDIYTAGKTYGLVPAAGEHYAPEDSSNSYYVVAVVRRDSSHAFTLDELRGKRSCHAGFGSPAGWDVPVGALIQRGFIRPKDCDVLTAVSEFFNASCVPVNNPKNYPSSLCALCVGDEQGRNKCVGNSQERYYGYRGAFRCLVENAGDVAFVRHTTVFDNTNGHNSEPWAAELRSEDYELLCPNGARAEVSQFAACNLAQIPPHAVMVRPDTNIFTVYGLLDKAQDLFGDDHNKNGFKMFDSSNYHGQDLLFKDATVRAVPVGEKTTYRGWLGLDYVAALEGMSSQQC

[2] = cited from earlier work

B1: L49-sFv-bL: parental L49 single-chain Fv fused to Enterobacter cloacae β-lactamase, solubly expressed in the E. coli periplasm (Siemers et al., 1997) (protein)
scFv: MEVQLQESGPSLVKPSQTLSLTCSVTGDSITSGYWNWIRKFPGNKLEYMGYISDSGITYYNPSLKSRISITRDTSKNQYYLQLNFVTAEDTATYNCARRTLATYYAMDYWGQGTSVTVSSGSTSGSGKPGSGEGSTKGDFVMTQTPLSLPVSLGDQASISCRASQSLVHSNGNTYLHWYLQKPGQSPKLLIYRVSNRFSGVPDRFSGSGSGTDFTLKISRVEAEDLGVYFCSQSTHVPPTFGGGTKLEIKRTPVSEKQLAEVVANTITPLMKAQSVPGMAVAVIYQGKPHYYTFGKADIAANKPVTPQTLFELGSISKTFTGVLGGDAIARGEISLDDAVTRYWPQLTGKQWQGIRMLDLATYTAGGLPLQVPDEVTDNASLLRFYQNWQPQWKPGTTRLYANASIGLFGALAVKPSGMPYEQAMTTRVLKPLKLDHTWINVPKAEEAHYAWGYRDGKAVRVSPGMLDAQAYGVKTNVQDMANWVMANMAPENVADASLKQGIALAQSRYWRIGSMYQGLGWEMLNWPVEANTVVETSFGNVALAPLPVAEVNPPAPPVKASWVHKTGSTGGFGSYVAFIPEKQIGIVMLANTSYPNPARVEAAYHILEALQ
**Q.** With B1 as the molecule, how does the Kd [1] read?
**A.** 1 nM

**Q.** What about the “tumor to blood ratio” value ([2]; 24-48 hours after the fusion protein was administered) of the same molecule?
**A.** 141-150 :1

**Q.** What about the “terminal half-life t1/2β” value ([2]; clearance from systemic circulation) of the same molecule?
**A.** 2.5 h
